Three molecules from patent publication US20240400675A1 (published 2024) can be followed below.

In one assay the target is T1, human CLDN17 (human, UniProt P56750 1-224).
T1 construct: whole, on cells
T1 sequence (looked up): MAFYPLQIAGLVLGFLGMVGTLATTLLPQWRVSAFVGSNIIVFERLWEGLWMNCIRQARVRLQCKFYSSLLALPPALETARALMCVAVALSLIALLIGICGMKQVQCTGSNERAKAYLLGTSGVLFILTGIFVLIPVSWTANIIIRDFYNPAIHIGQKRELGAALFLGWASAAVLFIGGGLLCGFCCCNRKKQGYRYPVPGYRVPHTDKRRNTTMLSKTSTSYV
In words: flow cytometry on transiently transfected 293 cells, 100 ug/ml. On the procedure:
(§1) 293 cells were transiently transfected to express CLDN3, CLDN4, CLDN8, or CLDN17. Cells were plated and each test article was added to each cell line at a 100 μg/ml dose. After 1 hour incubation at 4° C., cells were washed and a secondary AF647 antibody was added. Cells were incubated at 4° C. for another hour, followed by additional washing and then analysis by flow cytometry.
(§2) 293 cells were transiently transfected with CLDN3, CLDN4, CLDN8, or CLDN17. Cells were plated and each test article was added to each cell line at a 100 μg/ml dose. After 1 hour incubation at 4° C., cells were washed and a secondary AF647 antibody was added. Cells were incubated at 4° C. for another hour, followed by additional washing and then analysis by flow cytometry. […] This highlights the potential of CLDN6 binding domains having specificity for binding not only CLDN6 but also other claudin family members.
A general note: Flow cytometry measures light scatter and fluorescence of single cells or particles in a stream.

A further assay concerns the target T2, human CLDN8 (human, UniProt P56748 1-225).
T2 construct: whole, on cells
T2 sequence (looked up): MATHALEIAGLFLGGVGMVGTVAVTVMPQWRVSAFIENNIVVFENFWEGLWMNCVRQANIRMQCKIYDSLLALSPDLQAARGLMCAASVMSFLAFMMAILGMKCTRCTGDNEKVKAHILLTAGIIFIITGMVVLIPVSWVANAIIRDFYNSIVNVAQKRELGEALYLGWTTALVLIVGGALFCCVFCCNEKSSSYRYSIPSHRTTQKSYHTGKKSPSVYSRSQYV
The description is as above. On the procedure: as §1, §2

The target in assay [1] is T3, human CLDN6 (human, UniProt P56747 1-220).
T3 construct: also called Claudin 6
T3 sequence: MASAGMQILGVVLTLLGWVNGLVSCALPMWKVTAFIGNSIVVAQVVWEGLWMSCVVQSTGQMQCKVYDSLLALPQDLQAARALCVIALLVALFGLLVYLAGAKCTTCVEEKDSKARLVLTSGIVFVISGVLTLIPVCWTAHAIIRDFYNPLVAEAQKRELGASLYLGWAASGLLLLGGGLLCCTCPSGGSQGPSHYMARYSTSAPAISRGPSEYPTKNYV
In words: flow cytometry on HEK293E cells expressing CLDN6 or CLDN9; EC50 on CLDN9 cells divided by EC50 on CLDN6 cells. On the procedure:
(§3) The following experiments used to screen CLDN6 binding domains were generally performed as follows. HEK293T or HEK293E cells were respectively stably or transiently transfected to express CLDN6, CLND9, or other targets of interest. 48 hours post transfection, cells were harvested and incubated with dilutions of the indicated test articles for 1 hour at 4° C. […] Binding was then assessed via flow cytometry.

The target of the next assay is T4, human CLDN9 (human, UniProt O95484 1-217).
T4 construct: also called CLND9
T4 sequence: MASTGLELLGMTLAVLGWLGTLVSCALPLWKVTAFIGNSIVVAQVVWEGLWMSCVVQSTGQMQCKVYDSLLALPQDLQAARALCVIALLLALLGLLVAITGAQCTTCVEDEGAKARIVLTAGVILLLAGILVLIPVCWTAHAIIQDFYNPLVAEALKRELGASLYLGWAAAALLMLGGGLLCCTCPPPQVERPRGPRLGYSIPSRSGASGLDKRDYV
In words: flow cytometry on HEK293E cells expressing CLDN9. On the procedure: as §3

The target of assay [2] is T3, human CLDN6. Put plainly: flow cytometry on PA-1 cells engineered to a range of CLDN6 densities.
Text: PA-1 cells were engineered to stably express a range of CLDN6 antigen densities. […] Cells were washed, stained with a secondary antibody, and washed again prior to being analyzed using flow cytometry.
Cell lines were then washed, stained with secondary antibody, and washed again before measuring binding by flow cytometry.

B1: XENP37217, CLDN6 x CD3 bispecific with comparator CLDN6 binding domain Comp_CHO02 in the 2+1 Fab2-scFv-Fc format (bispecific antibody)
heavy 1: EVQVEQSGLELVKPGASVKISCKTSGYTFTEYTMHWVKQSHGKSLEWIGGINPNNGNTRYNQKFKDKATLTVDKSSRTAYMELHTLTSEDSAVYYCARCGDYDLFFFFAYWGQGTLVTVSAASTKGPSVFPLAPSSKSTSGGTAALGCLVKDYFPEPVTVSWNSGALTSGVHTFPAVLQSSGLYSLSSVVTVPSSSLGTQTYICNVNHKPSNTKVDKKVEPKSCGGGGSGGGGSQAVVTQEPSLTVSPGGTVTLTCGSSTGAVTTSNYANWVQQKPGKSPRGLIGGTNKRAPGVPARFSGSLLGGKAALTISGAQPEDEADYYCALWYSNHWVFGGGTKLTVLGKPGSGKPGSGKPGSGKPGSEVQLVESGGGLVQPGGSLRLSCAASGFTFSTYAMNWVRQAPGKGLEWVGRIRSKANNYATYYADSVKGRFTISRDDSKNTLYLQMNSLRAEDTAVYYCVRHGNFGDSYVSWFAYWGQGTLVTVSSGGGGSGGGGSKTHTCPPCPAPPVAGPSVFLFPPKPKDTLMISRTPEVTCVVVDVKHEDPEVKFNWYVDGVEVHNAKTKPREEQYNSTYRVVSVLTVLHQDWLNGKEYKCKVSNKALPAPIEKTISKAKGQPREPQVYTLPPSREQMTKNQVKLTCLVKGFYPSDIAVEWESNGQPENNYKTTPPVLDSDGSFFLYSKLTVDKSRWQQGNVFSCSVMHEALHNHYTQKSLSLSPGK
heavy 2: EVQVEQSGLELVKPGASVKISCKTSGYTFTEYTMHWVKQSHGKSLEWIGGINPNNGNTRYNQKFKDKATLTVDKSSRTAYMELHTLTSEDSAVYYCARCGDYDLFFFFAYWGQGTLVTVSAASTKGPSVFPLAPSSKSTSGGTAALGCLVKDYFPEPVTVSWNSGALTSGVHTFPAVLQSSGLYSLSSVVTVPSSSLGTQTYICNVNHKPSDTKVDKKVEPKSCDKTHTCPPCPAPPVAGPSVFLFPPKPKDTLMISRTPEVTCVVVDVKHEDPEVKFNWYVDGVEVHNAKTKPREEEYNSTYRVVSVLTVLHQDWLNGKEYKCKVSNKALPAPIEKTISKAKGQPREPQVYTLPPSREEMTKNQVSLTCDVSGFYPSDIAVEWESDGQPENNYKTTPPVLDSDGSFFLYSKLTVDKSRWEQGDVFSCSVMHEALHNHYTQKSLSLSPGK
light: DIVMTQFQKFMSTSVGDRVSVTCKASQNVGTNVAWYQQKPGQSPEALISSASSRFSGVPDRFTGSGSGTDFTLTITNVQSEDLADYFCQQYNSFPFTFGSGTELEIKRTVAAPSVFIFPPSDEQLKSGTASVVCLLNNFYPREAKVQWKVDNALQSGNSQESVTEQDSKDSTYSLSSTLTLSKADYEKHKVYACEVTHQGLSSPVTKSFNRGEC
notes: also called comparator molecule XENP37217
With B1, the binding result with human CLDN17 and with human CLDN8 was “binds” each time.

B2: XENP36956 (antibody, V domains shown)
VH: QVQLVQSGAEVKKPGASVKVSCKTSGYTFTEYTMHWVRQAPGQSLEWMGGIDPNNGNTHYNQKFQGRVTITVDKSASTAYMELSSLRSEDTAVYYCARILYFGRLYFDFWGAGTLVTVSS
VL: DIQMTQSPSSLSASVGDRVTITCQASEDIYNRLAWYQQKPGKVPKLLISGATSLETGVPSRFSGSGSGKDYTFTISSLQPEDIATYYCQQYWSAPLTFGGGTKVEIKR
notes: Bivalent mAb, C6-30 combination variant; also called XENP36956 having H1.22_L1.87; XENP36956 having H1.22_L1.187; copies: 2 + 2
As a reminder, the EC50 is the concentration needed to bring the measured effect to its halfway point. High values mean lower potency in that assay, low ones higher potency in that assay. For the molecule B2, in the assay with human CLDN6 [1], the “CLDN9/CLDN6 EC50 ratio” value was 44.9. This molecule came in with an EC50 in the assay with human CLDN9 of 29.6 µg/mL.

B3: XENP37541 (Xtend analog to XENP37227) (bispecific antibody)
heavy 1: QVQLVQSGAEVKKPGASVKVSCKTSGYTFTEYTMHWVRQAPGQSLEWMGGIDPNNANTHYNQKFQGRVTITVDKSASTAYMELSSLRSEDTAVYYCARIYYFGRLYFDFWGAGTLVTVSSASTKGPSVFPLAPSSKSTSGGTAALGCLVKDYFPEPVTVSWNSGALTSGVHTFPAVLQSSGLYSLSSVVTVPSSSLGTQTYICNVNHKPSDTKVDKKVEPKSCDKTHTCPPCPAPPVAGPSVFLFPPKPKDTLMISRTPEVTCVVVDVKHEDPEVKFNWYVDGVEVHNAKTKPREEEYNSTYRVVSVLTVLHQDWLNGKEYKCKVSNKALPAPIEKTISKAKGQPREPQVYTLPPSREEMTKNQVSLTCDVSGFYPSDIAVEWESDGQPENNYKTTPPVLDSDGSFFLYSKLTVDKSRWEQGDVFSCSVLHEALHSHYTQKSLSLSPGK
heavy 2: QVQLVQSGAEVKKPGASVKVSCKTSGYTFTEYTMHWVRQAPGQSLEWMGGIDPNNANTHYNQKFQGRVTITVDKSASTAYMELSSLRSEDTAVYYCARIYYFGRLYFDFWGAGTLVTVSSASTKGPSVFPLAPSSKSTSGGTAALGCLVKDYFPEPVTVSWNSGALTSGVHTFPAVLQSSGLYSLSSVVTVPSSSLGTQTYICNVNHKPSNTKVDKKVEPKSCGGGGSGGGGSQAVVTQEPSLTVSPGGTVTLTCGSSTGAVTTSNYANWVQQKPGKSPRGLIGGTNKRAPGVPARFSGSLLGGKAALTISGAQPEDEADYYCALWYSNHWVFGGGTKLTVLGKPGSGKPGSGKPGSGKPGSEVQLVESGGGLVQPGGSLRLSCAASGFTFSTYAMNWVRQAPGKGLEWVGRIRSKANNYATYYADSVKGRFTISRDDSKNTLYLQMNSLRAEDTAVYYCVRHGNFGDSYVSWFAYWGQGTLVTVSSGGGGSGGGGSKTHTCPPCPAPPVAGPSVFLFPPKPKDTLMISRTPEVTCVVVDVKHEDPEVKFNWYVDGVEVHNAKTKPREEQYNSTYRVVSVLTVLHQDWLNGKEYKCKVSNKALPAPIEKTISKAKGQPREPQVYTLPPSREQMTKNQVKLTCLVKGFYPSDIAVEWESNGQPENNYKTTPPVLDSDGSFFLYSKLTVDKSRWQQGNVFSCSVLHEALHSHYTQKSLSLSPGK
light: not shown
notes: 2+1 Fab2-scFv-Fc, C6-30_H1.9_L1.187, CD3 High-Int #1, with Xtend Fc (M428L/N434S); copies: 1 + 1 + 2
Turning to B3, the binding result in the assay with human CLDN6 [2] is given as “binds”.
